# B1: EST-6 (EST-6^F), esterase 6 (Drosophila melanogaster) (protein)
# chain: SDTDDPLLVQLPQGKLRGRDNGSYYSYESIPYAEPPTGDLRFEAPEPYKQKWSDIFDATKTPVACLQWDQFTPGANKLVGEEDCLTVSVYKPKNSKRNSFPVVAHIHGGAFMFGAAWQNGHENVMREGKFILVKISYRLGPLGFVSTGDRDLPGNYGLKDQRLALKWIKQNIASFGGEPQNVLLVGHSAGGASVHLQMLREDFGQLARAAFSFSGNALDPWVIQKGARGRAFELGRNVGCESAEDSTSLKKCLKSKPASELVTAVRKFLIFSYVPFAPFSPVLEPSDAPDAIITQDPRDVIKSGKFGQVPWAVSYVTEDGGYNAALLLKERKSGIVIDDLNERWLELAPYLLFYRDTKTKKDMDDYSRKIKQEYIGNQRFDIESYSELQRLFTDILFKNSTQESLDLHRKYGKSPAYAYVYDNPAEKGIAQVLANRTDYDFGTVHGDDYFLIFENFVRDVEMRPDEQIISRNFINMLADFASSDNGSLKYGECDFKDNVGSEKFQLLAIYIDGCQNRQHVEFP
# notes: natural allele expressed behind its own signal peptide (secreted) with BacuVance baculovirus system (Genscript); no tag told
# Assays:
# Settings in all cases: concentrated culture medium, enzyme titrated, GC-MS assay at pH 8.0, 25 mM Tris-HCl, 200 µM substrate, BSA, 5% ethanol
# [1] = substrate: CCCOC(=O)CCC; assay: cells, lysate or membranes
# [2] = substrate: CCCCCCCCOC(=O)CC; assay: competitive inhibition of 4-nitrophenyl acetate hydrolysis (Ki taken as Km); kcat from GC-MS substrate loss; format: biochemical, Drosophila melanogaster
# Excerpt: (§1) competitive inhibition of 4-nitrophenyl acetate hydrolysis (Ki taken as Km); kcat from GC-MS substrate loss on EST-6 (EST-6^F), esterase 6
# [3] = substrate: CCCCCOC(C)=O; assay: as above; format: biochemical, Drosophila melanogaster
# Excerpt: as §1
protein,measurement,setting,value
B1,Km,[1],18.3 mM
same,kcat,[1],1670 s⁻¹
same,Km,[2],3.16 mM
same,kcat,[2],4520 ± 1680 s⁻¹
same,Km,[3],2.93 mM
same,kcat,[3],969 ± 215 s⁻¹
